Test results published in patent US20130236462A1 (Sanofi, published 2013).
Like-named read-outs stand apart in the source and are kept apart here. Blank lines part the entries; values can stand above or below the molecule they belong to.

Columns and labels:
recombinant human IL-13 [1] = target: T1, recombinant human IL-13 (human, UniProt P35225 35-146, limits assumed); experiment: cell-based or functional assay
recombinant human IL-13 [2] = target: T1, recombinant human IL-13; experiment: SPR Biacore 3000, antibody captured, cytokine in solution
From the text: (§1) Surface plasmon resonance technology on a Biacore 3000 (GE Healthcare) was used for detailed kinetic characterisation of purified anibodics. A capture assay using a species specific antibody (e.g. human-Fc specific MAB 1302, Chemicon) for capture and orientation of the investigated antibodies was used. The capture antibody was immobilized via primary amine groups (10000 RU) on a research grade CM5 chip (GE Life Sciences) using standard procedures. The analysed antibody was captured with an adjusted RU value that would result in maximal analyte binding of 30 RU at a flow rate of 10 μl/min. Binding kinetics were measured against recombinant human IL-4 and IL-13 over a concentration range between 0 to 50 nM in HBS EP (10 mM HEPES pH 7.4, 150 mM NaCl, 3 mM EDTA, 0.005% Surfactant P20) at a flow rate of 30 μl/min. Chip surfaces were regenerated with 10 mM glycine pH2.5. Kinetic parameters were analysed and calculated in the BIAevaluation program package using a flow cell without captured antibody as reference. To investigate additive binding of both antigens, a wizard-driven co-inject method has been applied in which one antigen was injected immediately followed by the antigen mix of IL-13/IL-4.

recombinant human IL-4 [3] = target: T2, recombinant human IL-4 (human, UniProt P05112 25-153); experiment: as above
T2 construct: Bought reagent
T2 sequence (looked up): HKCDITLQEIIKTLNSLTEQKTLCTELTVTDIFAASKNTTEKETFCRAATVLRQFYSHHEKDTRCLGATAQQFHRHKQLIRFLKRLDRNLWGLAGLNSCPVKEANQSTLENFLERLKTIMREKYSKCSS
From the text: as §1
Binding and neutralization activity assays were performed as described in the previous Examples.

recombinant human IL-4 [4] = target: T2, recombinant human IL-4; experiment: cell-based or functional assay
[5] = target: human IL-13 R112Q variant (human) (UniProt P35225); experiment: SPR Biacore 3000, antibody captured, cytokine in solution
recombinant human IL-4 [6] = target: T2, recombinant human IL-4; experiment: as above; remark: listed apart in the source
From the text: as §1

recombinant human IL-4 [7] = target: T2, recombinant human IL-4; experiment: cell-based or functional assay; remark: listed apart in the source

human IL-13 R112Q variant (human), sequence (P35225 33-146, stated change not applied): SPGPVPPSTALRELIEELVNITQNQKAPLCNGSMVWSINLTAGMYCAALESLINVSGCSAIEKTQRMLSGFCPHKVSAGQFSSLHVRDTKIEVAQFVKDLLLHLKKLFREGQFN
T1 sequence (P35225 35-146 limits assumed): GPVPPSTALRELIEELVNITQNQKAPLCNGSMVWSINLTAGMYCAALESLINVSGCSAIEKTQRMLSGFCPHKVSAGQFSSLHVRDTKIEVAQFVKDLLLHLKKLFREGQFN

Molecule: chimeric anti-IL-13 clone B-B13 monoclonal antibody
IC50, inhibition of IL-13 induced TF-1 cell proliferation (recombinant human IL-13 [1]): 7.4 nM
Kd (recombinant human IL-13 [2]): 0.261 nM
koff (recombinant human IL-13 [2]): 0.000461 s⁻¹
kon (recombinant human IL-13 [2]): 1.76e+06 M⁻¹ s⁻¹

B1: huTBTI3_1_1 (bispecific antibody, IgG4)
VH: EVQLKESGPGLVAPGGSLSITCTVSGFSLTDSSINWVRQPPGKGLEWLGMIWGDGRIDYADALKSRLSISKDSSKSQVFLEMTSLRTDDTATYYCARDGYFPYAMDFWGQGTSVTVSSGGGGSGGGGSQVQLQQSGPELVKPGASVKISCKASGYSFTSYWIHWIKQRPGQGLEWIGMIDASDGETRLNQRFQGRATLTVDESTSTAYMQLRSPTSEDSAVYYCTRLKEYGNYDSFYFDVWGAGTLVTVSS
VL: DIVLTQSPASLAVSLGQRATISCRASESVDSYGQSYMHWYQQKAGQPPKLLIYLASNLESGVPARFSGSGSRTDFTLTIDPVQAEDAATYYCQQNAEDSRTFGGGTKLEIKGGGGSGGGGSDIQMTQSPASLSVSVGDTITLTCHASQNIDVWLSWFQQKPGNIPKLLIYKASNLHTGVPSRFSGSGSGTGFTLTISSLQPEDIATYYCQQAHSYPFTFGGGTKLEIK
notes: Dual variable domain IgG4: B-B13 VL3 × VH2 outer, 8D4-8 VL1 × VH2 inner, (G4S)2 linkers; heterotetramer of two heavy and two light chains; copies: 2 + 2
Kd (recombinant human IL-4 [3]): 0.148 nM
koff (recombinant human IL-4 [3]): 0.000378 s⁻¹
kon (recombinant human IL-4 [3]): 2.55e+06 M⁻¹ s⁻¹
IC50 (nM) in IL-4 assay (TF-1 cell proliferation) (recombinant human IL-4 [4]): 1.7 nM
Kd [5]: 0.121 nM
koff [5]: 0.000118 s⁻¹
kon [5]: 974000 M⁻¹ s⁻¹

B4: huB-B13 VL2 × VH2 (antibody, V domains shown)
VH: EVQLKESGPGLVAPGGSLSITCTVSGFSLTDSSINWVRQPPGKGLEWLGMIWGDGRIDYADALKSRLSISKDSSKSQVFLEMTSLRTDDTATYYCARDGYFPYAMDFWGQGTSVTVSS
VL: DIVLTQSPASLAVSLGQRATISCRASESVDSYGNSYMHWYQQKAGQPPKLLIYLASNLESGVPARFSGSGSRTDFTLTIDPVQAEDAATYYCQQNNEDSRTFGGGTKLEIK
notes: Expressed as a whole antibody, purified on Protein A; also called humanized B-B13 VL2xVH2
Kd (recombinant human IL-13 [2]): 0.157 nM
koff (recombinant human IL-13 [2]): 0.000177 s⁻¹
kon (recombinant human IL-13 [2]): 1.13e+06 M⁻¹ s⁻¹

B5: huB-B13 VL1 × VH3 (antibody, V domains shown)
VH: EVQLKESGPGLVAPGGSLSITCTVSGFSLTDSSINWVRQPPGKGLEWLGMIWGDGRIDYADALKSRLSISKDSSKSQVFLEMTSLRTDDTATYYCARDGRFPYAMKFWGQGTSVTVSS
VL: DIVLTQSPASLAVSLGQRATISCRASESVDSYGNSYMHWYQQKAGQPPKLLIYLASNLESGVPARFSGSGSRTDFTLTIDPVQAEDAATYYCQQNNEDPRTFGGGTKLEIK
notes: Expressed as a whole antibody, purified on Protein A; also called humanized B-B13 VL1xVH3
Kd (recombinant human IL-13 [2]): 0.205 nM
koff (recombinant human IL-13 [2]): 0.000395 s⁻¹
kon (recombinant human IL-13 [2]): 1.93e+06 M⁻¹ s⁻¹

B8: huB-B13 VL1 × VH1 (antibody, V domains shown)
VH: EVQLKESGPGLVAPGGSLSITCTVSGFSLTDSSINWVRQPPGKGLEWLGMIWGDGRIDYNDALKSRLSISKDNSKSQVFLEMNSLRTDDTATYYCARDGYFPYAMDFWGQGTSVTVSS
VL: DIVLTQSPASLAVSLGQRATISCRASESVDSYGNSYMHWYQQKAGQPPKLLIYLASNLESGVPARFSGSGSRTDFTLTIDPVQAEDAATYYCQQNNEDPRTFGGGTKLEIK
notes: Expressed as a whole antibody, purified on Protein A; also called humanized B-B13 VL1xVH1
IC50, inhibition of IL-13 induced TF-1 cell proliferation (recombinant human IL-13 [1]): 15.7 nM
Kd (recombinant human IL-13 [2]): 0.396 nM
koff (recombinant human IL-13 [2]): 0.000691 s⁻¹
kon (recombinant human IL-13 [2]): 1.74e+06 M⁻¹ s⁻¹

B9: Hu8D4-8 VL1 × VH2 (antibody, V domains shown)
VH: QVQLQQSGPELVKPGASVKISCKASGYSFTSYWIHWIKQRPGQGLEWIGMIDASDGETRLNQRFQGRATLTVDESTSTAYMQLRSPTSEDSAVYYCTRLKEYGNYDSFYFDVWGAGTLVTVSS
VL: DIQMTQSPASLSVSVGDTITLTCHASQNIDVWLSWFQQKPGNIPKLLIYKASNLHTGVPSRFSGSGSGTGFTLTISSLQPEDIATYYCQQAHSYPFTFGGGTKLEIKR
notes: Expressed as a whole antibody, purified on Protein A; also called humanized 8D4-8 VL1xVH2
Kd (recombinant human IL-4 [6]): 0.0139 nM
koff (recombinant human IL-4 [6]): 0.000348 s⁻¹
kon (recombinant human IL-4 [6]): 2.57e+07 M⁻¹ s⁻¹
IC50, inhibition of IL-4 induced TF-1 cell proliferation (recombinant human IL-4 [7]): 0.135 nM

B10: chimeric anti-IL-4 clone 8D4-8 monoclonal antibody (antibody, V domains shown)
VH: QVQLQQSGPQLVRPGTSVKISCKASGYSFTSYWIHWIKQRPGQGLEWIGMIDPSDGETRLNQRFKDRATLTVDRSSSTAYMQLRSPTSEDSALYYCTRLKEYGNYDSFYFDVWGAGTTVTVSS
VL: DIQMNQSPASLSVSLGDTITLTCHASQNIDVWLSWFQQSPGNIPKLLIYKASNLHTGVPSRFSGSGSGTGFTLTISSLQPEDIATYYCQQAHSYPFTFGGGTKLEIK
notes: Murine variable domains fused to IGHG1 and IGKC; also called ch8D4-8 WT; chimeric 8D4-8
Kd (recombinant human IL-4 [6]): 0.00783 nM
koff (recombinant human IL-4 [6]): 0.000195 s⁻¹
kon (recombinant human IL-4 [6]): 2.49e+07 M⁻¹ s⁻¹
IC50, inhibition of IL-4 induced TF-1 cell proliferation (recombinant human IL-4 [7]): 0.084 nM

Second part, the molecule after the results:

Kd (recombinant human IL-13 [2]): 0.563 nM
koff (recombinant human IL-13 [2]): 0.000373 s⁻¹
kon (recombinant human IL-13 [2]): 864000 M⁻¹ s⁻¹
Molecule: mouse anti-IL-13 monoclonal antibody clone B-B13

Kd (recombinant human IL-4 [3]): 0.0332 nM
koff (recombinant human IL-4 [3]): 0.000132 s⁻¹
kon (recombinant human IL-4 [3]): 3.96e+06 M⁻¹ s⁻¹
B2: huTBTI3_2_2 (bispecific antibody, IgG4)
VH: EVQLKESGPGLVAPGGSLSITCTVSGFSLTDSSINWVRQPPGKGLEWLGMIWGDGRIDYADALKSRLSISKDSSKSQVFLEMTSLRTDDTATYYCARDGYFPYAMDFWGQGTSVTVSSGGGGSGGGGSQVQLQQSGPELVKPGASVKISCKASGYSFTSYWIHWIKQRPGQGLEWIGMIDPSDGETRLNQRFQGRATLTVDESTSTAYMQLRSPTSEDSAVYYCTRLKEYGNYDSFYFDVWGAGTLVTVSS
VL: DIVLTQSPASLAVSLGQRATISCRASESVDSYGNSYMHWYQQKAGQPPKLLIYLASNLESGVPARFSGSGSRTDFTLTIDPVQAEDAATYYCQQNNEDSRTFGGGTKLEIKGGGGSGGGGSDIQMTQSPASLSVSVGDTITLTCHASQNIDVWLSWFQQKPGNIPKLLIYKASNLHTGVPSRFSGSGSGTGFTLTISSLQPEDIATYYCQQAHSYPFTFGGGTKLEIK
notes: Dual variable domain IgG4: B-B13 VL2 × VH2 outer, 8D4-8 VL1 × VH1 inner, (G4S)2 linkers; heterotetramer of two heavy and two light chains; copies: 2 + 2

Kd (recombinant human IL-4 [3]): 0.138 nM
koff (recombinant human IL-4 [3]): 0.000308 s⁻¹
kon (recombinant human IL-4 [3]): 2.23e+06 M⁻¹ s⁻¹
B3: huTBTI3_1_2 (bispecific antibody, IgG4)
VH: EVQLKESGPGLVAPGGSLSITCTVSGFSLTDSSINWVRQPPGKGLEWLGMIWGDGRIDYADALKSRLSISKDSSKSQVFLEMTSLRTDDTATYYCARDGYFPYAMDFWGQGTSVTVSSGGGGSGGGGSQVQLQQSGPELVKPGASVKISCKASGYSFTSYWIHWIKQRPGQGLEWIGMIDASDGETRLNQRFQGRATLTVDESTSTAYMQLRSPTSEDSAVYYCTRLKEYGNYDSFYFDVWGAGTLVTVSS
VL: DIVLTQSPASLAVSLGQRATISCRASESVDSYGNSYMHWYQQKAGQPPKLLIYLASNLESGVPARFSGSGSRTDFTLTIDPVQAEDAATYYCQQNNEDSRTFGGGTKLEIKGGGGSGGGGSDIQMTQSPASLSVSVGDTITLTCHASQNIDVWLSWFQQKPGNIPKLLIYKASNLHTGVPSRFSGSGSGTGFTLTISSLQPEDIATYYCQQAHSYPFTFGGGTKLEIK
notes: Dual variable domain IgG4: B-B13 VL2 × VH2 outer, 8D4-8 VL1 × VH2 inner, (G4S)2 linkers; heterotetramer of two heavy and two light chains; copies: 2 + 2

IC50, inhibition of IL-13 induced TF-1 cell proliferation (recombinant human IL-13 [1]): 5.2 nM
Kd (recombinant human IL-13 [2]): 0.172 nM
koff (recombinant human IL-13 [2]): 0.000333 s⁻¹
kon (recombinant human IL-13 [2]): 1.93e+06 M⁻¹ s⁻¹
B6: huB-B13 VL3 × VH1 (antibody, V domains shown)
VH: EVQLKESGPGLVAPGGSLSITCTVSGFSLTDSSINWVRQPPGKGLEWLGMIWGDGRIDYNDALKSRLSISKDNSKSQVFLEMNSLRTDDTATYYCARDGYFPYAMDFWGQGTSVTVSS
VL: DIVLTQSPASLAVSLGQRATISCRASESVDSYGQSYMHWYQQKAGQPPKLLIYLASNLESGVPARFSGSGSRTDFTLTIDPVQAEDAATYYCQQNAEDSRTFGGGTKLEIK
notes: Expressed as a whole antibody, purified on Protein A; also called humanized B-B13 VL3xVH1

Kd (recombinant human IL-13 [2]): 0.189 nM
koff (recombinant human IL-13 [2]): 0.000405 s⁻¹
kon (recombinant human IL-13 [2]): 2.14e+06 M⁻¹ s⁻¹
B7: huB-B13 VL3 × VH3 (antibody, V domains shown)
VH: EVQLKESGPGLVAPGGSLSITCTVSGFSLTDSSINWVRQPPGKGLEWLGMIWGDGRIDYADALKSRLSISKDSSKSQVFLEMTSLRTDDTATYYCARDGRFPYAMKFWGQGTSVTVSS
VL: DIVLTQSPASLAVSLGQRATISCRASESVDSYGQSYMHWYQQKAGQPPKLLIYLASNLESGVPARFSGSGSRTDFTLTIDPVQAEDAATYYCQQNAEDSRTFGGGTKLEIK
notes: Expressed as a whole antibody, purified on Protein A; also called humanized B-B13 VL3xVH3

Kd (recombinant human IL-4 [6]): 0.0377 nM
koff (recombinant human IL-4 [6]): 0.000217 s⁻¹
kon (recombinant human IL-4 [6]): 5.57e+06 M⁻¹ s⁻¹
IC50, inhibition of IL-4 induced TF-1 cell proliferation (recombinant human IL-4 [7]): 0.097 nM
B11: mouse anti-IL-4 monoclonal antibody clone 8D4-8 (antibody, V domains shown)
VH: QVQLQQSGPQLVRPGTSVKISCKASGYSFTSYWIHWIKQRPGQGLEWIGMIDPSDGETRLNQRFKDRATLTVDRSSSTAYMQLRSPTSEDSALYYCTRLKEYGNYDSFYFDVWGAGTTVTVSS
VL: DIQMNQSPASLSVSLGDTITLTCHASQNIDVWLSWFQQSPGNIPKLLIYKASNLHTGVPSRFSGSGSGTGFTLTISSLQPEDIATYYCQQAHSYPFTFGGGTKLEIKR
notes: Bought mouse monoclonal antibody (Biozol / BioLegend); also called murine 8D4-8
